From the supplement of paper PMC12042874
± gives the uncertainty stated by the source.

Experiment: amyloid nucleation score (Sup35N fusion, yeast selection) (log enrichment); library NNK1; higher = more nucleation; inactive = no reads after selection
Procedure, shortened: (§1)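 Using DiMSum, nucleation scores were taken as the log enrichment of output over input reads, centred on the mode score of non-aggregating sequences. The input and output reads came from Illumina sequencing of plasmid inserts, with sequences under 100 input reads excluded. The yeast were psi-negative, expressed Sup35N fused to peptides of 20 random codons, were induced with 100 μM copper sulfate for 24 hours, and were grown 7 days at 30°C on medium lacking adenine and uracil.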

In order of falling amyloid nucleation score:
1. FISPLSISLHQWVLSSKYRE  7.394 ± 0.044
2. QCAWCTRSVNNMYQTLEYHI  6.151 ± 0.049
3. CHWLNVYSCFSYVVTYDWSN  6.044 ± 0.056
4. APCRVMIYINMSMDYWTMES  5.19 ± 0.072
5. MENEWIVTSCFLFWINFYSV  4.23 ± 0.072
6. SSRGRPLQPSIQIKYSFVMY  4.13 ± 0.095
7. GLRLNITNSRGRPRETWRGR  2.33 ± 0.24
8. QLKCPKNDHVIVWDFCINQL  2.28 ± 0.32
9. NQDVTPVMRVVLDSSPTLSS  2 ± 0.6
10. KIALTLIRRLQFLNDSVKPQ  1.71 ± 0.17
11. STERKYLSLDKSWNVRLVLF  1.61 ± 0.23
12. LSNYYHDGILVIMRSATNDH  1.61 ± 0.41
13. LHTRGLEMFRIGPSCCKWPL  1.49 ± 0.68
14. FPCSRIELVVSVCVAWVNSC  1.42 ± 0.28
15. LISLRVHYAASLFFFPVDDF  0.998 ± 0.93
16. MKMRFVVSLMNSERSSGRNE  0.9 ± 0.5
17. VVILYIDRFGVLFHHLG  0.821 ± 1.1
18. KPWLVHMHGSSYNGRADAEV  0.811 ± 0.61
19. LRMFFDSTTILKLYERSWNI  0.777 ± 1.2
20. SRDRKVYLAYVYVYTRNVQT  0.683 ± 0.34
21. YSSLLVTLAEAWCIRLSNRR  0.665 ± 0.84
22. QKLVDLTIRWGYRPLGRCWW  0.622 ± 0.97
23. KDQKISVIMFILMRVPLY  0.546 ± 0.45
24. FALLFRLFRW  0.539 ± 0.28
25. QASSGIDVNHFYAVNLTSML  0.487 ± 0.97
26. SFLDMGFEAVNFGVVPSIMR  0.479 ± 0.48
27. NEHQVNEG  0.478 ± 0.48
28. REPVCICLIAAYGRAKPPTG  0.382 ± 0.84
29. QRVSIRFSVPRGL  0.312 ± 0.31
30. NCFRTSCKSGEWLQLFIRRG  0.275 ± 0.39
31. EGHARKKEWLTITPRER  0.261 ± 0.38
32. LNCCYKKNVGIQDMRTMDIQ  0.247 ± 1.1
33. CMYTEACNWWGKYNCVGRQL  0.235 ± 0.32
34. IYACTYY  0.184 ± 0.45
35. MILLKCIYY  0.179 ± 0.39
36. LIHSRKVLSSMTYIEGPLTS  0.166 ± 0.34
37. LKTWVDFRDYLLAPKAVCIY  0.161 ± 0.57
38. QYIVW  0.142 ± 0.32
39. CQSGMSDDEGGQGRFVKCMG  0.114 ± 0.51
40. NYHMIVRLASLKKQW  0.109 ± 0.46
41. IRSFPTV  0.075 ± 0.47
42. AYTCDV  0.03 ± 0.29
43. SLGVDYDTGSVVYVAGCNCR  0.009 ± 0.46
44. LVISSRREKR  0.009 ± 0.57
45. NSRSGLMNLVEKSLLYKMLY  -0.007 ± 0.48
46. SCYTVYQLGLDVGRGVDLEF  -0.013 ± 0.58
47. HVDKFLG  -0.025 ± 0.6
48. KLGPVTYLYP  -0.03 ± 0.72
49. HGFNPNWGSRVKGSMVRV  -0.044 ± 0.47
50. RKNAFDFDAS  -0.099 ± 0.42
51. GLASVRILGRMQV  -0.106 ± 0.36
52. GRFRARIHCSPQARVTFVAS  -0.113 ± 0.71
53. MFTYDGRVEWVLA  -0.133 ± 0.45
54. SCCWVSIDSNQCHRACTVRT  -0.136 ± 0.56
55. VRNVG  -0.14 ± 0.59
56. QKKSLVRGKGES  -0.145 ± 0.48
57. KGDNIPLGAPSREMLTVYRA  -0.146 ± 0.5
58. RFWSAL  -0.148 ± 0.92
59. SLFMSYLCRLVHRLLSRKIG  -0.172 ± 0.28
60. VRRSEHSRLSYEWGECLRLT  -0.174 ± 0.38
61. MVLWW  -0.231 ± 0.58
62. IENRFLGVKLIAGCSHGLWS  -0.241 ± 0.57
63. WPWNEPY  -0.251 ± 0.48
64. GTTHRDS  -0.263 ± 0.35
65. IEAYYGIPDVKHMLVYLRQD  -0.284 ± 0.7
66. LFMLWLCCIKVFNKGCFGRS  -0.297 ± 0.26
67. NGNDDLSQTTEVKGYVGATL  -0.3 ± 0.37
68. DLEIAGREGS  -0.322 ± 0.55
69. THYNAGSCKMLNQAPFHRIS  -0.352 ± 0.33
70. FALIRN  -0.368 ± 1.7
71. LQTLGNWLHFKYAYWLLSNL  -0.55 ± 0.72
72. SLDDPFRENCLLESFSLMLS  -0.552 ± 1.9
73. CYCNEKIVTMRAIDIVRFTC  -0.556 ± 0.23
74. FYRQFHHLGEDPLH  -0.583 ± 0.53
75. QRPLCENRLDYKLGYSTMTF  -0.646 ± 1.6
76. STDVFYLV  -0.669 ± 0.39
77. KRFLSYWRFSWGWYIAQACG  -0.68 ± 1.4
78. FLDLSGMPGSVWFDIGVSCF  -0.716 ± 1
79. SDMDNTWLA  -0.797 ± 0.66
80. PEVSIFFLFLGMVYLMWQWV  -0.839 ± 0.7
81. DLTVRPACAGCRLYSEVILD  -0.852 ± 1.6
82. FLYGYGADPMPMSSVGRGVK  -0.864 ± 0.51
83. GTSKTTGERDWLRPMTRDI  -0.94 ± 2.7

For LNRVFEDHWVLTLAVLHTSR, the amyloid nucleation score was “inactive”.
In the case of CEGCDMGWLRSTNRQLMAYL, the amyloid nucleation score is reported as “inactive”.
For VFLMYRLMH, the amyloid nucleation score was “inactive”.
For SASWGRYGERLHCDQRYFII, the amyloid nucleation score was “inactive”.
With LASFMQRRAYSDGHDMLVRM the amyloid nucleation score was “inactive”.
With FGVEYWWSLGCVWGTLLGYN the amyloid nucleation score was “inactive”.
With MKQFIKNLNISLPPARTQLT the amyloid nucleation score was “inactive”.

Experiment: amyloid nucleation score (Sup35N fusion, yeast selection) (log enrichment); library NNK2; higher = more nucleation; inactive = no reads after selection
Procedure, shortened: as §1

In order of falling amyloid nucleation score:
1. SEHLTCLWCLW  9.924 ± 0.064
2. THIAVIGISGTDEENLKLGR  6.439 ± 0.026
3. YNIFPIISLITRNK  6.42 ± 0.064
4. CLVAQNVTVMVSGV  5.94 ± 0.065
5. IPFIRMFVSFNNLQSISIPD  5.534 ± 0.033
6. IRCCAWFDLVSESRSRGTWT  5.43 ± 0.072
7. SRSSG  5.17 ± 0.058
8. LLYRYYSF  3.72 ± 0.056
9. TLVHSKF  3.01 ± 0.089
10. KLSNLSHDSYMLENALFALT  2.52 ± 0.063
11. NISFADSCMNFIRYY  2.4 ± 0.12
12. PVLTYFKLQLMM  2.23 ± 0.066
13. LKARIACADYIRSGIILLCS  2.2 ± 0.08
14. ILVSTIEGCLDYNLCFLAGL  1.67 ± 0.12
15. SDMRCGYMLRCWLVQRVSHR  1.48 ± 0.54
16. MDLRVTVILFSDYEAYFDVT  1.33 ± 0.18
17. LLTTEQ  1.29 ± 0.43
18. CRMNDNSDWVRYAGHKAMAS  1.2 ± 0.27
19. KLPMRNFRDVCEADLHPVK  1.11 ± 0.61
20. MTGNIEIIRMCRCTTYGMTY  1.09 ± 0.37
21. KWVVKMDVGCVPSQTRRGSW  1.05 ± 0.4
22. TIEGALSSS  0.931 ± 0.22
23. VPELVSYFHLP  0.863 ± 0.43
24. TFCVRQLYLSML  0.833 ± 0.2
25. MIDRE  0.83 ± 0.2
26. LCGLSTLLFFKMDV  0.716 ± 0.6
27. SLMLQ  0.706 ± 0.81
28. WRCSSISCDCDARLGRMRVS  0.697 ± 0.42
29. GLICRV  0.518 ± 0.46
30. FMSGGVVYSLMTGTR  0.388 ± 0.36
31. MCNFRSWGALLNKRAHGVGS  0.307 ± 0.65
32. LFVDKMCERDFYFVSSHRYR  0.306 ± 0.8
33. INWLKYLAFLILLDMFNSFG  0.263 ± 0.64
34. PTVSLKDISGWIKPVRYLNG  0.26 ± 0.25
35. MYREGSTVGLYMFPYCKDQS  0.237 ± 0.4
36. VRTWCAFYTVIRGWYRLLGS  0.231 ± 0.5
37. GRKCVTYSCPF  0.185 ± 0.39
38. EFCIPKNLRSW  0.182 ± 0.22
39. VLFNKSLLRWSNWLV  0.166 ± 0.26
40. VTEHRNHIKTWTTQSSLCDW  0.124 ± 0.37
41. VTRRLYSRFIGTKEISAVIC  0.119 ± 0.43
42. VTALYGSSICMSRSDY  0.119 ± 0.47
43. CLYMRFAFHLPELRALTKSP  0.094 ± 0.77
44. LNSQSLVAYMRAFVKDSPCR  0.007 ± 1.1
45. LFGFLTTRVPWIFSWMVPTA  -0.003 ± 0.44
46. LASFFCFGIINTAC  -0.019 ± 0.17
47. NCFKECVVPHR  -0.043 ± 0.37
48. PGHSWMMSDDPDRYMNNLTV  -0.053 ± 0.79
49. KRFIESNIVIQSDLTSLRRK  -0.184 ± 1.1
50. GSNHRSVVFIFLMLMGFMES  -0.205 ± 0.76
51. CLEHHNIWVILLVER  -0.207 ± 0.63
52. GCVNYNGRCEVDGRAD  -0.227 ± 0.23
53. LYRQTLLSHL  -0.231 ± 0.24
54. EGCMSFFKRSQYATDQDLGA  -0.24 ± 0.39
55. YAFIILISCFLTDDSTIGVY  -0.24 ± 0.55
56. RWLPSVID  -0.302 ± 0.61
57. LAVLGIYDTLLYCHTVLYEI  -0.302 ± 0.36
58. TCVQLKNAIFQVSWYILLQG  -0.322 ± 0.65
59. TEQICGNMWSLYESFNFINS  -0.474 ± 1.1
60. VSNFSRYHLSCYSMVRLLLD  -0.532 ± 0.36
61. ASMVSVSVDEFGGFLPSCVS  -0.55 ± 0.46
62. LSFVVL  -0.67 ± 1.1
63. IGSEDPRHFRSVCWSYNDTL  -0.789 ± 0.61
64. LASAFG  -0.792 ± 0.79
65. FYIMFLVRCYKDEPSTRANL  -0.796 ± 0.62
66. THPEFSIPIGRHHYGG  -0.836 ± 0.29
67. PKSHFSRFGYYKVFQRSGRS  -0.92 ± 1.1
68. IELGFFSGTVIVVSYWEFTR  -1.02 ± 1
69. AQVKKLDRARCRFQRVV  -1.4 ± 0.78

With YTRLYFNEHDFYFFVGIMT the amyloid nucleation score was “inactive”.
With EFQIMFVFHWT the amyloid nucleation score was “inactive”.
With IKKIRYPRFLVVLN the amyloid nucleation score was “inactive”.
With NYAPGFTWFSMTNKKDFNVS the amyloid nucleation score was “inactive”.
For YSLYEYFKSHLRKACVMPGW, the amyloid nucleation score was “inactive”.
For NQCISDPNSCSSCALL, the amyloid nucleation score was “inactive”.
For ANFGALHRAHESVECSLY, the amyloid nucleation score was “inactive”.
For GYSILKC, the amyloid nucleation score was “inactive”.
In the case of ECRFKDTATRFRQSLRFYNM, the amyloid nucleation score is reported as “inactive”.
In the case of LWSFKYFSVCYNLWTIMKGG, the amyloid nucleation score is reported as “inactive”.
In the case of YDYYLMVISFRFVNFYNGVG, the amyloid nucleation score is reported as “inactive”.
